In patent publication US20080280833A1, “Therapeutic Peptides Derived from Urokinase Plasminogen Activator Receptor” (priority 2005, published 2008):

Biological target: purified human αvβ3 integrin (Chemicon) (human) (UniProt P06756)
Assay: cell-free pull-down: 125I-suPAR + αvβ3 + uPA + D2A (5 µg), immunoprecipitation with LM609, densitometry

purified human αvβ3 integrin (Chemicon) (human), sequence (P06756 31-1048, form in doubt, chain 1 of 2): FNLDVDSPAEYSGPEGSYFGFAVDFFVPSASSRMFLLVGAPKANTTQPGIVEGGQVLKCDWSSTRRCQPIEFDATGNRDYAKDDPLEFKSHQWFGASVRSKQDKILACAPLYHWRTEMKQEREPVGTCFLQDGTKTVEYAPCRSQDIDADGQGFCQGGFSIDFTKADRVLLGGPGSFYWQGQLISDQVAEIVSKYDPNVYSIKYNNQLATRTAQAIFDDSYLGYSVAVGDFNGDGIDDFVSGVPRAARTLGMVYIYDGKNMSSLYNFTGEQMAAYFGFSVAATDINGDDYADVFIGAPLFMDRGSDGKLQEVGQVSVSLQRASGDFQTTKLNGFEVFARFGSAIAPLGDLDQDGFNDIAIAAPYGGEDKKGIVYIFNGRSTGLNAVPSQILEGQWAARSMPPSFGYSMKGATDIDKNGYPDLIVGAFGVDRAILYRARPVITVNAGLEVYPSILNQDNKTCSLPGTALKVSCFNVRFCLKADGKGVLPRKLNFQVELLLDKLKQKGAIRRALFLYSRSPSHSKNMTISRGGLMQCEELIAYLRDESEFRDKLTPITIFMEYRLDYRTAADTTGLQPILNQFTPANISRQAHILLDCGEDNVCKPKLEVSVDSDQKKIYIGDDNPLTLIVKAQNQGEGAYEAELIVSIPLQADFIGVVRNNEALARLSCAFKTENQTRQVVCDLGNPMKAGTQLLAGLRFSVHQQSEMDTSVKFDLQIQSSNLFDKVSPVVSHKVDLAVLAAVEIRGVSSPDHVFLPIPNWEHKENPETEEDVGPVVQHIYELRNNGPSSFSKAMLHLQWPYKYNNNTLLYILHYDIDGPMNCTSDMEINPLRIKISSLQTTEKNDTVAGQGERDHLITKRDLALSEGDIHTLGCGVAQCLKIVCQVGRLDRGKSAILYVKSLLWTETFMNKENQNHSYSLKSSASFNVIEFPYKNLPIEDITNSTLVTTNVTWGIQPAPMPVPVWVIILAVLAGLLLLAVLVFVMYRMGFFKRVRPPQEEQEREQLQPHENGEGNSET
purified human αvβ3 integrin (Chemicon) (human), sequence (P05106 27-788, form in doubt, chain 2 of 2, further chain): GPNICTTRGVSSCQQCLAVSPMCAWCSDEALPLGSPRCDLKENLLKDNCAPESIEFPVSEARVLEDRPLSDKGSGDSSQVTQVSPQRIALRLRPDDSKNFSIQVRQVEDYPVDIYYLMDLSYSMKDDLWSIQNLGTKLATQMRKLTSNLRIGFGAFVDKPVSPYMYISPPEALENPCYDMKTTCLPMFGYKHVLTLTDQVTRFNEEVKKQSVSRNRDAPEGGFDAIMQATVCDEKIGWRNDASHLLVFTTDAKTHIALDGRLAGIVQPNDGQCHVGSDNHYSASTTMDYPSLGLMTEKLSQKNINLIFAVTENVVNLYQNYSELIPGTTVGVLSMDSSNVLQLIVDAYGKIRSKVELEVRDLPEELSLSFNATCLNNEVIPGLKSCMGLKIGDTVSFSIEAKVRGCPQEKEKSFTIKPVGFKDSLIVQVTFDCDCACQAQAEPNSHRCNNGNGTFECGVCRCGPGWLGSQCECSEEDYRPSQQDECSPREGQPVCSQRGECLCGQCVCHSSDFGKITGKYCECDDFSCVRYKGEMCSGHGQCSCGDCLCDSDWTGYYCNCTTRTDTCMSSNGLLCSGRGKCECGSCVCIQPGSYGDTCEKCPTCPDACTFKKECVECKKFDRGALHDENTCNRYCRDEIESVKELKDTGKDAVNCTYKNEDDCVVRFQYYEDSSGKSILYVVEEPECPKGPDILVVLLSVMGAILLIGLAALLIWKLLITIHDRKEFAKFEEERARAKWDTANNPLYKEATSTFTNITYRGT

- percent reduction of coimmunoprecipitated suPAR compared to uPA alone: 50%
Substance: peptide D2A, synthetic peptide of domain 2 of human uPAR (aa130-142)
